# The supplement of paper PMC12764529
# ± gives the half width of the 95% confidence interval.
# Columns and labels:
# [1] = folding stability dG unfold (combined trypsin and chymotrypsin); higher = more stable
# Method in brief: (§1)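 How resistant each design was to proteolysis was captured as K50, inferred by Bayesian fitting of sequencing counts. Unfolding free energy was then derived relative to a sequence-predicted unfolded-state K50 and a shared folded-state K50, per protease or combined. Digestion used trypsin and chymotrypsin at 11 threefold-diluted concentrations plus a no-protease condition, on mini-proteins under 80 residues without cysteine in a PA-tagged cDNA display construct. Designs were kept only when AlphaFold2 dimer inter-PAE was above 15.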
# [2] = folding stability dG unfold from chymotrypsin proteolysis; higher = more stable
# Method in brief: as §1
# [3] = folding stability dG unfold from trypsin proteolysis; higher = more stable
# Method in brief: as §1
Sequence,folding stability dG unfold [1],folding stability dG unfold [2],folding stability dG unfold [3]
SAGGSAGGSAPLSLVIDFPSGPATITFLEDGTARITYTDDDKTETIPVADLLKIPADVDPRSAGGSAGGSAG [r3_256_TrMRF],0.507 ± 0.091 kcal/mol,0.769 ± 0.12 kcal/mol,0.0215 ± 0.099 kcal/mol
SAGGSAGGSAGGSMKEVTITLTDPETGKVSTLVLKLSPEEIEKAAEELAKSSGKKVTIRSAGGSAGGSAGGS [r4_301_JUSTAS],1.78 ± 0.13 kcal/mol,1.99 ± 0.066 kcal/mol,1.04 ± 0.068 kcal/mol
SAEEAAKNFKPIRIRLRDPRGRLYEVERIELTPDGRLLITLRLPNETRTYLIEPDHPFPLPPDLIIEVEGSA [r9_993_TrMRF],3.34 ± 0.08 kcal/mol,3.59 ± 0.043 kcal/mol,2.74 ± 0.049 kcal/mol
SAGGSAGGSSVTRLIYLEDGTVLVVKLTPKPLVLPDGKPAFVLGFEVVEIRPVKDPKEALKALSAGGSAGGS [r12_915_TrMRF],1.61 ± 0.071 kcal/mol,1.3 ± 0.081 kcal/mol,1.81 ± 0.039 kcal/mol
SAGGKFKIVKIEVEEKTVKVKNKDGKIEKKKVKVIKVKIYKDGKLIKEVTFKSKEDMLNALKELLKKSAGGS [r8_21_TrROS_Hall],4.35 ± 0.3 kcal/mol,4.53 ± 0.23 kcal/mol,3.06 ± 0.11 kcal/mol
SAGGSAMKIKRDNGKVRIEIDFPPEMKNPERMLMNIRSAINENPNKPIKVTMPPGHREWAKRLLKESAGGSA [r15_89_TrROS],-0.248 ± 0.24 kcal/mol,-0.686 ± 0.44 kcal/mol,0.219 ± 0.19 kcal/mol
SAGGDNIDVERHPHPNNMYMFSITIPPDYPLKIRYPNGPKHEIPIPDPNATIHFMFPPDEPIEIEIYPSAGG [r13_82_TrROS],1.2 ± 0.083 kcal/mol,1.25 ± 0.12 kcal/mol,1.12 ± 0.019 kcal/mol
SAGWKPITAEEIKKLVKEFAEKAPPGDKRPVTVEIRLPLPNGRHWVFTIKVERTDNNVKVKIEVQPYNSAGG [r19_220_TrROS],3.2 ± 0.11 kcal/mol,3.64 ± 0.039 kcal/mol,2.49 ± 0.076 kcal/mol
SAGGSAGGMKTFTIDELKKLAEELGAEIYYDKDTNTIYIRTPGKIFRITINDDGTVTIEELPPKSAGGSAGG [r6_155_TrROS_Hall],3.66 ± 0.25 kcal/mol,3.99 ± 0.083 kcal/mol,3.05 ± 0.19 kcal/mol
SAGGKEVLTVTVEVEIDGVLIRVEAEVTLDEDGNLTVTITRIEIRPLPPPKIDLRDLTDEQRKELGIESAGG [r13_964_TrROS_Hall],1.93 ± 0.13 kcal/mol,2.02 ± 0.086 kcal/mol,2.04 ± 0.096 kcal/mol
SAGGSAGGSAGMIKIEETVVLPDGTVVRKEKEIEPPNGKTTTLKTETVPVLSPGSESLLLSAGGSAGGSAGG [r11_919_JUSTAS],0.461 ± 0.067 kcal/mol,0.313 ± 0.074 kcal/mol,0.429 ± 0.041 kcal/mol
SAGDALKDLAPDVEITPSSFPFAFPPSRPVLAASIVAHPDNTITVFLTEVHPDGGARVLVYTLHLSDKSAGG [r19_125_TrMRF],3.05 ± 0.14 kcal/mol,3.2 ± 0.051 kcal/mol,2.78 ± 0.12 kcal/mol
SAGGSAGGSAGGSVTSTSSVGSSPGSTTTLTYPEKPLYVTVYTELKDDPTVVTTETFPLLSAGGSAGGSAGG [r7_509_JUSTAS],1.56 ± 0.39 kcal/mol,1.73 ± 0.066 kcal/mol,1.22 ± 0.19 kcal/mol
SAGPEKVREAARELFEKLNLPIVSEEAIEVGDAVLIRFEIPEIGTKITILAPVFENGEIKVIVKIEPVSSAG [r5_888_TrMRF],1.65 ± 0.091 kcal/mol,1.58 ± 0.032 kcal/mol,1.71 ± 0.069 kcal/mol
SAGGSAPPDTPLATIEFTLTPPDGSTTPTTITVPPSVVEEAAAAQKAAFEAAGWATTVTVATTTPLSAGGSA [r2_274_JUSTAS],0.526 ± 0.034 kcal/mol,0.246 ± 0.1 kcal/mol,0.676 ± 0.015 kcal/mol
SAGGSAGGSAGGYFIRINNGRTFPFPSPEDAEEIVKTIARPFGHPDMTIEIYRMPPEQFPSAGGSAGGSAGG [r7_839_TrROS],0.0194 ± 0.18 kcal/mol,-0.1 ± 0.24 kcal/mol,-0.0675 ± 0.22 kcal/mol
SAGGSAGGSSSMVVIEKEFPDLTPEEVEKLAKEIEEKNPELGKVEVKFKPKKKPKPPLTPEAKKSAGGSAGG [r6_825_JUSTAS],0.878 ± 0.11 kcal/mol,1.29 ± 0.036 kcal/mol,-0.672 ± 0.21 kcal/mol
SAGGSAKMVLVKIKVEGMSVEEVKKLLEEAGAKVVKIDEEKKVIIVEVSPEKAEELAKKLGFEVEVSAGGSA [r15_731_TrROS_Hall],3.45 ± 0.086 kcal/mol,3.42 ± 0.11 kcal/mol,3.36 ± 0.14 kcal/mol
SAGGSAGGSAGGMKVKAYIFENGKLKEIELSEEELKELLKKLPNARILIEVDGKKLELPASAGGSAGGSAGG [r7_188_TrROS_Hall],3.51 ± 0.2 kcal/mol,3.79 ± 0.12 kcal/mol,1.93 ± 0.083 kcal/mol
SAGMVKIEIEKKEDGEILITITAPSEEELKKLAEELAKELAKKLGIEEIEVKVEKLENGEYKVTIRIKKSAG [r5_772_TrROS_Hall],2.99 ± 0.23 kcal/mol,3.09 ± 0.26 kcal/mol,2.99 ± 0.14 kcal/mol
SAGGEEEAVEKPFYQLPEKKPLKTVPMSREEALALARENPDLGILYAEEDGKLWKVDAETGTIEPLGSAGGS [r16_214_JUSTAS],1.46 ± 0.14 kcal/mol,1.58 ± 0.11 kcal/mol,1.23 ± 0.043 kcal/mol

Sequence,folding stability dG unfold [1],folding stability dG unfold [2],folding stability dG unfold [3]
SAGGSAGGSPKVTTSTSSSVLGNGRLESTVSNPDLGVTTLTLTDPESDVVTTFTETAGSTTPAASAGGSAGG [r6_757_JUSTAS],0.606 ± 0.031 kcal/mol,0.815 ± 0.037 kcal/mol,0.132 ± 0.025 kcal/mol
SAGGSAGGSAVLDPSSPRPFEIVEVRRVRFEATVSFAGRPRKLEIEVDLLLVRDPSNGRIGSAGGSAGGSAG [r3_391_TrMRF],3.14 ± 0.15 kcal/mol,3.54 ± 0.049 kcal/mol,2.19 ± 0.04 kcal/mol
SAGGVDKGPPDAEVSREVLPRKLPNGKELLEEIRTRVLASGSLLVDRTIRDPNSDKVESEELVDPGASAGGS [r8_129_JUSTAS],-0.0613 ± 0.32 kcal/mol,-0.0363 ± 0.16 kcal/mol,0.021 ± 0.31 kcal/mol
SAGGGADVISAYDPETVEELSKLPWVTSVTYDPETGRYDIRFERPDGQYNYVVDNVTKEVLEVSPVDSAGGS [r8_251_TrMRF],1.3 ± 0.1 kcal/mol,1.29 ± 0.053 kcal/mol,1.03 ± 0.07 kcal/mol
SAGGSAGGSMLVLKVEVKIEVEEREVIGPDGKIKKEKKIKIEIKIELFELPPLTEEELKKLKESAGGSAGGS [r12_1060_TrROS_Hall],3.6 ± 0.72 kcal/mol,4.14 ± 0.21 kcal/mol,2.73 ± 0.27 kcal/mol
SAGGSAGGSAGGMTKLEPLATEPNPLKVLTKVTTTDPVTGKPKTTIVETEIPVPESELGSAGGSAGGSAGGS [r10_846_JUSTAS],0.0083 ± 0.12 kcal/mol,-0.0657 ± 0.13 kcal/mol,0.0416 ± 0.06 kcal/mol
SGEIIGEQTFPVEDGGKVPVKIYKNPGNLYAEVFNDDDKPIQEQEIPPDDDLEDIENIKLPPGAWVRIYWSA [r9_215_TrROS],0.433 ± 0.3 kcal/mol,0.368 ± 0.39 kcal/mol,0.205 ± 0.14 kcal/mol
SAGGSAGGSAGGKPTITVTYDKENNTVTITFPDGSKIEITVPENATEEEVKKLVEELAKSAGGSAGGSAGGS [r10_33_TrROS_Hall],2.97 ± 0.22 kcal/mol,3.13 ± 0.11 kcal/mol,2.62 ± 0.18 kcal/mol
SAGGSAGGSAMVVEVPVEFPDDVKVYSVEEDPELGVLLVKVKFPDREVLAVIPGDKLFIADASAGGSAGGSA [r18_212_TrMRF],0.422 ± 0.052 kcal/mol,0.325 ± 0.089 kcal/mol,0.43 ± 0.016 kcal/mol
SAGGSAGGSAGMKPDDTVTYTITVPHPESGEPLAEIELTYPVGTPIEKVKEEAKILAEKISAGGSAGGSAGG [r11_516_TrMRF],0.429 ± 0.088 kcal/mol,0.141 ± 0.27 kcal/mol,0.515 ± 0.03 kcal/mol
STSTTITYPTLTISVEESVLPDGTPRYTVTLHLPEKGVSIPVEVDSAAEAEEAVREAIRKLLPDETVEEESA [r9_749_JUSTAS],2.23 ± 0.2 kcal/mol,2.24 ± 0.16 kcal/mol,2.24 ± 0.12 kcal/mol
SAGGLNINLPPGQEIELTLQVTHLFNGGNGDFGSMTHTYEIPIKIKPIPPVPKPEVERDPDGNYKVEDSAGG [r13_401_TrROS],0.296 ± 0.28 kcal/mol,0.358 ± 0.26 kcal/mol,-0.0612 ± 0.076 kcal/mol
SAGGSAGGSAGGPENDWREVDIKIKFENPEGKPIFDIKIYYMPDGDIMIYFPNGNWIWISAGGSAGGSAGGS [r10_972_TrROS],3.75 ± 0.17 kcal/mol,4.14 ± 0.065 kcal/mol,2.42 ± 0.14 kcal/mol
SAGGSAGGSAGGEEPVTFMVRIPIRRRDPDGNPEPVAEIDINVTMPPEDAERIIKELIKSAGGSAGGSAGGS [r10_574_TrROS],-0.326 ± 0.22 kcal/mol,-0.547 ± 0.76 kcal/mol,-0.245 ± 0.34 kcal/mol
SEEIIKALEEAGYEVESIEYDEETKTVTITIYRKNKETGKIEKKTITIEVEPGMTEEELLALARELLEKESA [r9_184_TrROS_Hall],4.83 ± 0.66 kcal/mol,4.71 ± 0.31 kcal/mol,4.77 ± 0.93 kcal/mol
SAGGSAGGSAGVRDPDNGEPMPPGDWVIRHRDNEKPHHFLIPPNNAEEFAEDNGIEIHKVSAGGSAGGSAGG [r17_109_TrROS],1.32 ± 0.35 kcal/mol,1.24 ± 0.14 kcal/mol,1.42 ± 0.23 kcal/mol
SAKTIKIEIEVKPEKLEEVLEEIAKALAEKLGLPEDVKEIKIEVTKIEVEKVKVDGKEYVKVKIEIKVESAG [r14_736_TrROS_Hall],3.59 ± 0.32 kcal/mol,3.97 ± 0.28 kcal/mol,3.04 ± 0.19 kcal/mol
SAGGSAGGSAGGSNDNVVPITILFVDPGKDDRLYLREIRLRIYENGDIEAEVKVYELPLSAGGSAGGSAGGS [r10_598_TrMRF],3.68 ± 0.1 kcal/mol,4.12 ± 0.075 kcal/mol,2.87 ± 0.11 kcal/mol
SAGGAFEMSNEYWFPDGFRVKLKVEVYPNGMFMLDLEIEPIPPPPPIKIEKDPDGEYKYDPNGQPQKDSAGG [r13_151_TrROS],2.91 ± 0.38 kcal/mol,3.36 ± 0.18 kcal/mol,2.58 ± 0.18 kcal/mol
SAGGKKKYRIKITYKDEGKLYEVPEDVKATVDPNNVVYIEVDSKEAVDELVKAIAPKDGLEVEVEPGSAGGS [r8_131_TrMRF],0.916 ± 0.093 kcal/mol,1.18 ± 0.087 kcal/mol,0.52 ± 0.044 kcal/mol
SAGGSSITVTDETTVEVSPTGSPTGPPVATVTTTTSTTTTTYYDPKTGTSTETTTTTTTTTTSTGASAGGSA [r2_269_JUSTAS],0.382 ± 0.15 kcal/mol,0.192 ± 0.11 kcal/mol,0.603 ± 0.067 kcal/mol
